Measured values taken from patent US20180360950A1 (published 2018).

Experiments:
[1] = target: recombinant full-length VAR2CSA (3D7-DBL1X-6ε) (Plasmodium falciparum (3D7)); test: SPR
[2] = target: T1, recombinant full-length DARC325 protein (UniProt Q16570 1-325); test: SPR
T1 chain: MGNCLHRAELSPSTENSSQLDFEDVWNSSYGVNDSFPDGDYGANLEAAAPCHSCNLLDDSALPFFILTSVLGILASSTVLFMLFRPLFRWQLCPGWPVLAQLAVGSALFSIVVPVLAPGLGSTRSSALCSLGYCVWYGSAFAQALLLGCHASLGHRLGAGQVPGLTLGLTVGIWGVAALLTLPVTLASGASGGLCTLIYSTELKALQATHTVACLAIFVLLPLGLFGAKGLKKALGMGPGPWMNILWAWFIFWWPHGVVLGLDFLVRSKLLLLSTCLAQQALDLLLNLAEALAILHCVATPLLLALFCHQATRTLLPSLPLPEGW

B1: VAR2CSAVHH (VHH)
VHH: QVQLQESGGGLVQAGGSLRLSCAFSGSIFKMGWFRQAPGKEREFVAAIRWSGGSTYYADSVKGRFTISRDNAKNTVYLQMDSLKPEDTAVYYCAATWDLAGWNTVDEYDYWGQGTQVTVSS
Q: For B1, which Kd [1] is on record?
A: The Kd was 486 pM.

B2: DARCVHH (VHH)
VHH: QVQLQESGGGSVQAGGSLRLSCAASGYAFSSYCMAWFRQVPGKEREGVASINSDGERRGYADSVKGRFTVSRDNAKNTVYLQMNSLKPEDTAIYYCAAKRVVGGRYCGGGVSSWGQGTQVTVSS
Q: With B2 as the binder, how does the Kd [2] read?
A: The Kd was 90 pM.

B3: DARCVHH-EBV P18F4 (VHH)
VHH: QVQLQESGGGSVQAGGSLRLSCAASGYAFSSYCMAWFRQVPGKEREGVASINSDGERRGYADSVKGRFTVSRDNAKNTVYLQMNSLKPEDTAIYYCAAKRVVGGRYCGGGVSSWGQGTQVTVSS
Q: For B3, which Kd [2] is on record?
A: Its Kd is 56.5 pM.
